Several values for one entry are separate records, joined by “and”; a condition that tells them apart may be missing. Equal entries are not always repeated.

Series [1] deals with T1, alpha toxin (alpha-hemolysin) (Staphylococcus aureus, UniProt P09616 27-319). The series is described as follows: SPR; assay 1; […] (pH not stated); SPR temperature not stated; […]. The conditions noted are these: protein: commercial; stem-loop (Mfold).
The target in series [2] is T1, alpha toxin (alpha-hemolysin). Put plainly: SPR; […] (pH not stated); SPR temperature not stated; […]. Particulars: protein: commercial; stem-loop (Mfold).
For series [3] the target is unchanged. The series is described as follows: SPR; assay 2; […] (pH not stated); SPR temperature not stated; […]. The conditions noted are these: protein: commercial; stem-loop (Mfold).
The target of series [4] is exotoxin A (UniProt P11439 26-638). Put plainly: fluorescence plate binding; p = 0.004; […] (pH not stated); SPR temperature not stated; […]. The conditions noted are these: protein: commercial; stem-loop (Mfold).
exotoxin A, sequence (P11439 26-638): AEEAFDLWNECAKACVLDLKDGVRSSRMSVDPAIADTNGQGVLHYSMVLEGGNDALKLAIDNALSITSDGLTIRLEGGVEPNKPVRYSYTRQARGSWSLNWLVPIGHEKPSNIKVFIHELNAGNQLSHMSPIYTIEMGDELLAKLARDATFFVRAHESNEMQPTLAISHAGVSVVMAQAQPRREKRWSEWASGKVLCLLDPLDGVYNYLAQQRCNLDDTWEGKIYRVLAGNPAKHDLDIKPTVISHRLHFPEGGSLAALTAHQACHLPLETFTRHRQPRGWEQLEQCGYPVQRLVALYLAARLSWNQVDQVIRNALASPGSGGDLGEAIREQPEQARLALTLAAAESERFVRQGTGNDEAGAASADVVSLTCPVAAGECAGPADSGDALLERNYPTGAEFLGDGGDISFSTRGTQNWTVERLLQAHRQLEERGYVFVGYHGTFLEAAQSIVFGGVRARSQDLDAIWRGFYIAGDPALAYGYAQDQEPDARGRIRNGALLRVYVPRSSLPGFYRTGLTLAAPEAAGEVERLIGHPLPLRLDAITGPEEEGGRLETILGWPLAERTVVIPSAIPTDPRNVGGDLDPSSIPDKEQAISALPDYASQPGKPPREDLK
Series [5] concerns the target cholera toxin (UniProt P01555;P01556 19-258;22-124). Put plainly: […] (pH not stated); SPR temperature not stated; […]. The conditions noted are these: protein: commercial; copies: 1;5; stem-loop (Mfold).
The target in series [6] is T1, alpha toxin (alpha-hemolysin). Described as above. Particulars: protein: commercial; stem-loop (Mfold).
The target in series [7] is toxin B (UniProt P18177 2-2366). The series is described as above. Particulars: protein: commercial; stem-loop (Mfold).
toxin B, sequence (P18177 2-2366): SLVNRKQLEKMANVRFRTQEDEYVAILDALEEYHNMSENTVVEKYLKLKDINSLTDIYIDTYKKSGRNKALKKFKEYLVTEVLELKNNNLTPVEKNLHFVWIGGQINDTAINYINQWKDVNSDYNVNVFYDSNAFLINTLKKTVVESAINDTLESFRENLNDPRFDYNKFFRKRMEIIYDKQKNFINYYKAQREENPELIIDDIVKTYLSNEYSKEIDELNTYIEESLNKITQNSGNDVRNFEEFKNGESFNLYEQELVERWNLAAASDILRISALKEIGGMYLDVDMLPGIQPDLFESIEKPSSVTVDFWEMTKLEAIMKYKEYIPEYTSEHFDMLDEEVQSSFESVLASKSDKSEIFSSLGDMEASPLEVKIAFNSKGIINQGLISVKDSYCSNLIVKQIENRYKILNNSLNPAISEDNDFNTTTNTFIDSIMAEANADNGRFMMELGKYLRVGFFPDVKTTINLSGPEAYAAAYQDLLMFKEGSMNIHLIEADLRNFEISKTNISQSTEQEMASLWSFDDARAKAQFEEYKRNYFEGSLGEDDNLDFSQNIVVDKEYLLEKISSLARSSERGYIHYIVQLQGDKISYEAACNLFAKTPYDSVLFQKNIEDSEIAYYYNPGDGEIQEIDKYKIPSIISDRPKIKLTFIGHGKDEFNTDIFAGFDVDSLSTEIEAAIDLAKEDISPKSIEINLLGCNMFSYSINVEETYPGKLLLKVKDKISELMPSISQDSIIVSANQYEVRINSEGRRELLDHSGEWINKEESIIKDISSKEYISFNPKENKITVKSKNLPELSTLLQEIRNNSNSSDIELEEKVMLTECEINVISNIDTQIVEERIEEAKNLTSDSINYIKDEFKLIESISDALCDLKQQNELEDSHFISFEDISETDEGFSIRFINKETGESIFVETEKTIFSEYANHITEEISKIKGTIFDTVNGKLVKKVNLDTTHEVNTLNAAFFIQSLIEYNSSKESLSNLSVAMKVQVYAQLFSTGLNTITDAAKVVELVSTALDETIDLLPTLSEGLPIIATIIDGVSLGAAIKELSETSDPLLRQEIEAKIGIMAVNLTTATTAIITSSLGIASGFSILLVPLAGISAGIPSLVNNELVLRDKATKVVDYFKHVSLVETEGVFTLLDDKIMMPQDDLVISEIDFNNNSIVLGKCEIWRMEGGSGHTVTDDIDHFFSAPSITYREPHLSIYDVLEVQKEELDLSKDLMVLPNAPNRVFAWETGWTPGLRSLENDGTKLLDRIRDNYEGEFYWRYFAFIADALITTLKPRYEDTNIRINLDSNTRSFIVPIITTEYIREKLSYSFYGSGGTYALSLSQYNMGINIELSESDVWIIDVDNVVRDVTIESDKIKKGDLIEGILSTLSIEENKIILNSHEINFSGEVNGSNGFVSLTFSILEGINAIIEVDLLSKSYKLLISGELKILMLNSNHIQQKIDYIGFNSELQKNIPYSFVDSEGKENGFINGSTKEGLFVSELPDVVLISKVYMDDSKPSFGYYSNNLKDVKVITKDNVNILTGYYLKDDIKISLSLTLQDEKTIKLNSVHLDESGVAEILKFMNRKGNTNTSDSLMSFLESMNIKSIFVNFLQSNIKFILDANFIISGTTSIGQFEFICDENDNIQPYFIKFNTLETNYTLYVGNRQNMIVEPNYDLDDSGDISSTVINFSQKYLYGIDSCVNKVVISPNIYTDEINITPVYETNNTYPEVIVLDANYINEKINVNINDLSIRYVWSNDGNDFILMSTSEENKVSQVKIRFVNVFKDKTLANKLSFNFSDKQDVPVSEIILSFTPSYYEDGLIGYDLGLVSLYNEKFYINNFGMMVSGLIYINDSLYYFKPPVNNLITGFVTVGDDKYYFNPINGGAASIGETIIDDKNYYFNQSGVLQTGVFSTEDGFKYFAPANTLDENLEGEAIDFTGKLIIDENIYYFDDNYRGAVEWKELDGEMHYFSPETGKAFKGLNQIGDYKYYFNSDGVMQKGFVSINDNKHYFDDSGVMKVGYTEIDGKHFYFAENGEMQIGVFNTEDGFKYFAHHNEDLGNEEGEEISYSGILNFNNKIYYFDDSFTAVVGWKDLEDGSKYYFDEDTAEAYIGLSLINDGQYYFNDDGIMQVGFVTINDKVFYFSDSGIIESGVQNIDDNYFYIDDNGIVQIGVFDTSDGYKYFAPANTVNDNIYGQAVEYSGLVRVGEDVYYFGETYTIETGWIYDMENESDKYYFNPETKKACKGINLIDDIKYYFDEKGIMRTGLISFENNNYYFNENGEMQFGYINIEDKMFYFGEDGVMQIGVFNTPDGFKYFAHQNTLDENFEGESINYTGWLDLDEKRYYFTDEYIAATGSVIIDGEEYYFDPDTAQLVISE

T1 sequence (P09616 27-319): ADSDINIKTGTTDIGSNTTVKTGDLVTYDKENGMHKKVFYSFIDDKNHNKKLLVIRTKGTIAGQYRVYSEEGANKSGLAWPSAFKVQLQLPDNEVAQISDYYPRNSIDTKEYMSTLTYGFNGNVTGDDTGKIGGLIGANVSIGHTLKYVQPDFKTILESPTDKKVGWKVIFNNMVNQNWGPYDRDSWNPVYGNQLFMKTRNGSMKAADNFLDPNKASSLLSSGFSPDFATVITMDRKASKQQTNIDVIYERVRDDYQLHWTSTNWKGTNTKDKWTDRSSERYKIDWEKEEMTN
cholera toxin, sequence (P01555 19-258, chain 1 of 2): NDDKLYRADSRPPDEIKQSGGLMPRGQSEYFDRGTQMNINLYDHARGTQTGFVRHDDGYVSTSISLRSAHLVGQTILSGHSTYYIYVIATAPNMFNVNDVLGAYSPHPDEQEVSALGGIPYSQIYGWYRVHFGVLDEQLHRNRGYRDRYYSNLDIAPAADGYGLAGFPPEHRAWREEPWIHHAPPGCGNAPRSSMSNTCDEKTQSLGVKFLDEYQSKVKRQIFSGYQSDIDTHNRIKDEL
cholera toxin, sequence (P01556 22-124, chain 2 of 2): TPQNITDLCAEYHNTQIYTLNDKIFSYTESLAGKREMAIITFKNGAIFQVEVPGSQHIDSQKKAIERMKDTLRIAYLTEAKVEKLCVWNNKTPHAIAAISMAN

B1: R12.06 (5'-amino-C6) (ssDNA)
DNA: TGTACCGTCTGAGCGATTCGTACGATTACTATAATTTCCTATCGTCCGACCGCCGTCAGCCAGTCAGTGTTAAGGAGTGC
modifications: 5' amino-C6
As for B1, the Kd in series [1] was 102 nM; in series [2], 93.7 nM and 90.7 nM; in series [3], 88.7 nM.

B2: R12.06 (FAM) (ssDNA)
DNA: TGTACCGTCTGAGCGATTCGTACGATTACTATAATTTCCTATCGTCCGACCGCCGTCAGCCAGTCAGTGTTAAGGAGTGC
On to B2, for which the binding signal in series [4] was 1.5 fold lower than alpha toxin; in series [5], 1.5 fold lower than alpha toxin; in series [6], 1 relative to alpha toxin; in series [7], 5 fold lower than alpha toxin.

The values are drawn from paper PMC4346865.
